Target: human VEGF (human) (UniProt P15692)
Test: cell-based or functional assay

Sequence of UniProt P15692 (P15692 other isoform, or with tags, fused parts or gaps limits assumed): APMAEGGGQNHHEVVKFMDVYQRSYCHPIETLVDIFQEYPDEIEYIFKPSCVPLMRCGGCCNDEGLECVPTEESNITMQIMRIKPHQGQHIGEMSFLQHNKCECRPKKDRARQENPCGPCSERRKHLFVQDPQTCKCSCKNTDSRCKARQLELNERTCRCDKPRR

EC50, inhibition of VEGF (10 ng/ml) dependent HUVE cell proliferation: 0.015 µg/mL
Substance: VEGFR1-Fc-IL-1ra (Fc fusion)

Source: US20080292628A1
